Test results: patent US9096835B2, “DNA polymerase” (Medical Research Council, priority 2003, dated 2015)

Test system: abasic sites and 5-hydroxy hydantoins
Assay: Hairpin ELISA lesion bypass screen
Type: biochemical
Settings: ELISA based activity screen
From the text: The below protocol is a sensitive method to measure polymerase activity both for the incorporation of unnatural nucleotide substrates (added to the reaction mixture) or the extension or replication of unnatural nucleotide substrates (incorporated as part of the hairpin oligo).
The assay comprises a hairpin oligonucleotide which constitutes both primer and template in one. In contains as part of the hairpin a biotinylated dU residue, which allows capture of the hairpin oligonucleotide on streptavidin-coated surfaces.
The oligonucleotide folds up into a hairpin with a 5′ overhang, which serves as the template strand for the polymerase (typical sequence: 5′-AGCTACCATGCCTGCACGCAGTCGGCATCCGTCGCGACCACG TT5 TTCGTGGTCGCGACGGATGCCG-3′ (SEQ ID NO: 52), bases involved in hairpin formation are underlined, 3′ base is in bold, 5=dU-biotin).
Extension reactions are carried out in the presence of small amounts of a labelled nucleotide typically DIG-16-dUTP. Product is captured (for example on a streptavidin coated ELISA plate) and incorporation of labelled nucleotide into the product strand is measured (using for example an anti-DIG antibody) and taken as a measure of polymerase activity. […]

B1: 3A10: third round clone, abasic site bypass; SEQ ID NO: 86 (protein)
chain: MAMLPLFEPKGRVLLVDGHHLAYRTFFALKGLTTSRGEPVQVVYGFAKSLLKALKEDGYKAVFVVFDAKAPSFRHKAYEAYRAGRAPTPQDFPRQLALIKELVDLLGFTRLEVPGYEADDVLATLAKKAEKEGYEVRILTADRGLYQLVSDRVAVLHPEGHLITPEWLWEKYGLRPEQWVDFRALVGDPSDNLPGVKGIGEKTALKLLKEWGSLENLLKNLDRVKPENVREKIKAHLEDLRLSLELSRVRTDLPLEVDLAQGREPDREGLRAFLERLEFGSLLHEFGLLESPKALEEAPWPPPEGAFVGFVLSRKEPMWADLLALAAARGGRVHQAPEPYKALRDLKEARGLLAKDLSVLALREGLGLPPGDDPMLLAYLLDPSNTTPEGVARRYGGEWTEEAGERAALSERLFANLWGRLEGEERLLWLYREVERPLSAVLAHMETTGVRLDVAYLRALSLEVAEEIARLEAEVFRLAGRPFNLNSRDQLERVLFDELGLPAIGKTEKTGKRSTSAAVLEALREAHPIVEKILQYRELTKLKSTYIDPLPDLIHPRTGRLHTRFNQTATATGRLSSSDPNLQNIPVRTPLGQRIRRAFIAEEGWLLVVLDYSQMELRVLAHLSGDENLIRVFQEGKDIHTQTASWMFGVPPEAVDPLMRRAAKTVNFGVLYGMSAHRLSQELSIPYEEAVAFIERYFQSFPKVRAWIEKTLEEGRRRGYVETLFGRRRYVPDLNARMKSVRGAAERMAFNMPVQGTAADLMKLAMVKLFPRLREMGARMLLQVHDELLLEAPQARAEEVAALAKEAMEKAYPLAVPLEVEVGIGEDWLSAKE
modifications: Mutant Taq polymerase
In the case of B1, the “proficiency at lesion bypass compared with wild type Taq” value is reported as “up to two orders of magnitude”.
